According to patent US20100150834A1, “HIGH AFFINITY EPHB RECEPTOR BINDING COMPOUNDS AND METHODS OF USE THEREOF” (priority 2006, published 2010):

Tests used:
[1] = target: murine EphB4-Fc (murine) (UniProt P54761); experiment: ELISA: murine EphB4-Fc on protein A plates, biotinylated peptide detected with streptavidin-HRP
[2] = target: murine EphB4-Alkaline Phosphatase (murine) (UniProt P54761); experiment: competition ELISA: murine EphB4-AP binding to immobilised murine ephrin-B2-Fc
[3] = target: murine EphB4-Alkaline Phosphatase (murine) (UniProt P54761); experiment: ELISA binding curve: TNYL-RAW Fc immobilised, increasing volumes of murine EphB4 AP, OD405; one experiment

murine EphB4-Alkaline Phosphatase (murine), sequence (P54761 16-539): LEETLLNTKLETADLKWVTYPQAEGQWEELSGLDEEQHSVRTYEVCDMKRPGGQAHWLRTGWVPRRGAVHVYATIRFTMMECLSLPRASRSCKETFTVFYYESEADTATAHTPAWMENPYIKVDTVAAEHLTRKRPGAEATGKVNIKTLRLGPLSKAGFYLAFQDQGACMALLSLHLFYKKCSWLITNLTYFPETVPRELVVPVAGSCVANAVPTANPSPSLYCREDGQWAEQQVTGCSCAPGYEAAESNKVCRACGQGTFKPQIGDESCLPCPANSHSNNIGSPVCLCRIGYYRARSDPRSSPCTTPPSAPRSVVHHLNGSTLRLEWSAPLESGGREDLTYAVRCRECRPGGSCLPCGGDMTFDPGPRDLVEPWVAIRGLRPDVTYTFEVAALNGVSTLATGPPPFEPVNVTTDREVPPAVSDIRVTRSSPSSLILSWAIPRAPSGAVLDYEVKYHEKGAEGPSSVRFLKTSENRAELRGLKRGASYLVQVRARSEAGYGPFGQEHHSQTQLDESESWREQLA
murine EphB4-Fc (murine), sequence (P54761 16-539 limits assumed): as the sequence (P54761 16-539) above

| Kd [1] [nM] | IC50 [2] [nM] | Kd [3] [nM] | Substance |
| --- | --- | --- | --- |
| 0.9 | 7 |  | PEG 3.4 kDa-linked TNYL-RAW-biotin dimer (peptide) |
| 0.9 | 9 |  | PEG 10 kDa-linked TNYL-RAW-biotin dimer (peptide) |
|  |  | 10 | TNYL-RAW Fc fusion protein |
| 1.4 | 21 |  | TNYL-RAW-biotin coupled to monofunctional 10 kDa PEG (monomer) (peptide) |
